Results on one protein are retold here after article PMC4030845, “DeSUMOylation Controls Insulin Exocytosis in Response to Metabolic Signals” (Biomolecules, 2012).

The data set concerns the molecule itself. As to the kind of experiment: immunoblot of cell lysates after SDS-PAGE (dimer band); INS-1 832/13 cells infected with Ad-SENP1, incubated in KRBH buffer with or without H2O2 (legend: 200 µM; methods: 1 mM) for 30 min at 37 °C; lysed in Cell-Lytic-M with DTT; 8% SDS-PAGE; blot with anti-SENP1 (C12). (A western blot detects proteins with antibodies after separation by electrophoresis.)

B1: SENP1 (sentrin-specific SUMO protease 1) (enzyme, UniProt Q9P0U3 1-644, looked up)
chain: MDDIADRMRMDAGEVTLVNHNSVFKTHLLPQTGFPEDQLSLSDQQILSSRQGHLDRSFTCSTRSAAYNPSYYSDNPSSDSFLGSGDLRTFGQSANGQWRNSTPSSSSSLQKSRNSRSLYLETRKTSSGLSNSFAGKSNHHCHVSAYEKSFPIKPVPSPSWSGSCRRSLLSPKKTQRRHVSTAEETVQEEEREIYRQLLQMVTGKQFTIAKPTTHFPLHLSRCLSSSKNTLKDSLFKNGNSCASQIIGSDTSSSGSASILTNQEQLSHSVYSLSSYTPDVAFGSKDSGTLHHPHHHHSVPHQPDNLAASNTQSEGSDSVILLKVKDSQTPTPSSTFFQAELWIKELTSVYDSRARERLRQIEEQKALALQLQNQRLQEREHSVHDSVELHLRVPLEKEIPVTVVQETQKKGHKLTDSEDEFPEITEEMEKEIKNVFRNGNQDEVLSEAFRLTITRKDIQTLNHLNWLNDEIINFYMNMLMERSKEKGLPSVHAFNTFFFTKLKTAGYQAVKRWTKKVDVFSVDILLVPIHLGVHWCLAVVDFRKKNITYYDSMGGINNEACRILLQYLKQESIDKKRKEFDTNGWQLFSKKSQEIPQQMNGSDCGMFACKYADCITKDRPINFTQQHMPYFRKRMVWEILHRKLL
notes: The adenovirus co-expresses GFP to identify infected cells; also called Ad-SENP1
What is called stoichiometry N is the number of molecules, sites or subunits per partner or assembly. On to B1, for which the “stoichiometry N” value came out at 2.
